From the DeepSol protein solubility set come the findings set out here.

A short description of this data set: soluble on expression in E. coli; label from the status in PepcDB or PDB records.
Regarding “MSQHNEKNPHQHQSPLHDSSEAKPGMDSLAPEDGSHRPAAEPTPPGAQPTAPGSLKAPDTRNEKLNSLEDVRKGSENYALTTNQGVRIADDQNSLRAGSRGPTLLEDFILREKITHFDHERIPERIVHARGSAAHGYFQPYKSLSDITKADFLSDPNKITPVFVRFSTVQGGAGSADTVRDIRGFATKFYTEEGIFDLVGHNTPIFFIQDAHKFPDFVHAVKPEPHWAIPQGQSAHDTFWDYVSLQPETLHNVMWAMSDRGIPRSYRTMEGFGIHTFRLINAEGKATFVRFHWKPLAGKASLVWDEAQKLTGRDPDFHRRELWEAIEAGDFPEYELGFQLIPEEDEFKFDFDLLDPTKLIPEELVPVQRVGKMVLNRNPDNFFAENEQAAFHPGHIVPGLDFTNDPLLQGRLFSYTDTQISRLGGPNFHEIPINRPTCPYHNFQRDGMHRMGIDTNPANYEPNSINDNWPRETPPGPKRGGFESYQERVEGNKVRERSPSFGEYYSHPRLFWLSQTPFEQRHIVDGFSFELSKVVRPYIRERVVDQLAHIDLTLAQAVAKNLGIELTDDQLNITPPPDVNGLKKDPSLSLYAIPDGDVKGRVVAILLNDEVRSADLLAILKALKAKGVHAKLLYSRMGEVTADDGTVLPIAATFAGAPSLTVDAVIVPCGNIADIADNGDANYYLMEAYKHLKPIALAGDARKFKATIKIADQGEEGIVEADSADGSFMDELLTLMAAHRVWSRIPKIDKIPA”, the “soluble on expression in E. coli” value is recorded as “soluble”.
With “MSQLSFADVFNMAREAADNSPVIQAGQQIAEMVPTVQRMMSEQYSRSRFIRVFKDTGRHLGRWEVFSDFLSLAASELDMARIRTPESMENCRKICARYGATDIANMQEMFCLMVCALEAKFHDFLGAIFMELELGDNFRGQYFTPYSVQCLMARMLMPGVRDTIRREGIATVSDPACGAAGMLIAYAECLLEADINPSMHMFGSCIDIDPVAADMAFIQLSLLGIAAEVVTGNTLTMQYRRVRYTPVYYLNAFEKRLADLRRFRAMRDFLRGIQEAA” the entry was “not soluble”; with “MSQPCPHCGFQFNCICSLVPKLTSKHEILLLMHPNELTRDTNTGQLLQHCQLNVEQAIWDRKQPPAELLTRLANPSLYPVILFPSEESITLEHVEMQSQQQAKMPLYIILDATWQEARKMINKSRWLEGIPTMGLSALADSQYQLRRNQQQGNLCTFEVAAHLLGQLGEQDNQQQMHTFFTHYLALFQAEKSGHALKSSPRSLEAAALEHHHHHH”, “not soluble”.
Turning to “MSQQHDYVIGKNAVIETLKSDRKLYKLWMAENTVKGQAQQVIELAKKQGITIQYVPRKKLDQMVTGQHQGVVAQVAAYEYAELDDLYKAAEEKNEQPFFLILDELEDPHNLGSIMRTADAVGAHGIVIPKRRAVGLTTTVAKASTGAIEHIPVARVTNLARTLEEMKERGIWVVGTDASAREDFRNMDGNMPLALVIGSEGKGMGRLVKEKCDFLIKLPMAGKVTSLNASVAAGLLMYEVYRKRNPVGE”, the “soluble on expression in E. coli” value is “not soluble”.
The value for “MSQSNLIQTDRFVLSETERSSIEHEMHHYEDPRAASIEALKIVQKQRGWVPDGAIPAIGEVLGIPASDVEGVATFYSQIFRQPVGRHIIRVCDSMVCYIGGHESVVGEIQKQLGIGLGQTTADGRFTLLPVCCLGNCDKAPALMIDDDTHGDVRPDGVAKLLEAYV” was “not soluble”.
For the sequence “MSQSRDLQGGKAFGLLKAQQEERLEGINKQFLDDPKYSNDEDLPSKLEAFKVKYMEFDLNGNGDIDIMSLKRMLEKLGVPKTHLELKRLIREVSSGSEETFSYSDFLRMMLGKRSAILRMILMYEEKNKEHKRPTGPPAKKAISELP”, the “soluble on expression in E. coli” value is reported as “soluble”.
On to “MSQTITVKVKLLPTKEQIQLLEQSSYEYIKVINTLVSEMAEAKKSTKKSTKDVEANLPSAVKNQAIKDAKSVFSTKVKKSKYKVIPILKRPVCVWNNQNYSFDFTHISVPLMVNGKSTRLKVRALLTDKYNRNFNLLTHKLGTLRITKKSNKWIAQISVTIPTNEKTGTKILGVDLGLKVPAVAITDDEKVRFFGNGRQNKYMKRKFRSVRKKLGENKKLNAIRQLDDKEQRWMQDQDHKVSREIIDFATDNNISVIRLEQLTNIRQTARTSRKNEKNLHTWSFYRLAQFIEYKANLVGIKVEYVNPAYTSQTCPKCSEKNKAPDRKYKCRCGFEKHRDIVGAMNIRYATVIDGNSQSALEHHHHHH”, for which the “soluble on expression in E. coli” value is on record as “soluble”.
With “MSRFRSLLQASVNATKKALTWNVEEWVPPAEKHIFKFHSKEDLKKWHLYSDSEYGGLSSASLEIPDKGDGSDCTGVFSGNLSVDLSEGSKWNISRSGFCGMRSKKFDGFIDLDGYDAIALRIRGDGRCYISTIYTENWVNSPGQSEDNSWQAFVFAPKDSWYTAKIPLARYLPTWRGNVIDVEMEMNPGRVLGMSLSVNAEGGAVGAKSGAGDFRVEIDWIKALRLP”, the “soluble on expression in E. coli” value is “soluble”.
“MSRLEIYSPEGLRLDGRRWNELRRFESSINTHPHAADGSSYMEQGNNKIITLVKGPKEPRLKSQMDTSKALLNVSVNINKFSKFERSKSSHKNERRVLEIQTSLVRMFEKNVMLNIYPRTVIDIEIHVLEQDGGIMGSLINGITLALIDAGISMFDYISGISVGLYDTTPLLDTNSLEENAMSTVTLGVVGKSEKLSLLLVEDKIPLDRLENVLAIGIAGAHRVRDLMDEELRKHAQKRVSNASAR”: the “soluble on expression in E. coli” value was “soluble”.
For the sequence “MSRLSSLLILVCIGALLVETFAAPDEPIIVRSKRQQCRCVKNPNGGLTCSCAKGPADGSSSSIGSGVQYDAPQSADIANQLTAMSQQTTGMSGARCGCIQIVIQGAPQYNCQCGDQSGNPLPTTTTMAPTTSSTTTTTTTTTQAPTTTSTTTTQSPVSYPQVPTQTQGSNGACNCIMISITSPQTAQYQCQCAQPQQQQQQQVQYDTYEYAPVQTTPTPMPTTQVPTTQAPTTQAPTMPTSSSPVQYADTAATQYPLTTTCVMYVNVPTTACSCLPQYDQCAQNVCCLKSKFRSYKKAEETQPSTLDVLMNVLQTIKTKLE”, the “soluble on expression in E. coli” value is given as “not soluble”.
Consider “MSRLVLLISLVIVVASAAAPQCEVCKKVLDDVMAKVPAGDKSKPDAIGKVIREHCETTRNKENKFCFYIGALPESATSIMNEVTKPLSWSMPTEKVCLEKLKGKDAQICELKYDKPLDWKTIDLKKMRVKELKNILGEWGEVCKGCTEKAELIKRIEELKPKYVKEEL”, for which the “soluble on expression in E. coli” value is given as “not soluble”.
The value for “MSRNQIYITQEQFDFFCQTQRPYEGFVEGVGYAFVHRGFVNPHANRPTNPFRQTKGYVLPFKQQLIEVSPDLIANSLKCNKTTDTPQEAPERDSRYLGERFYTKDGRYVYIGTMSGGWVCYDRSGNRILEQLPEIIVYSSKEPGRSIIGTGKD” was “not soluble”; that for “MSRNVGVLGQMSEINDHLYLSGAGVLKPDKIKQRKINMIVNATTEEPSTYMQGVDTMKIRIEDHPYARLNEHFDVVADKIRNVKERGGKTLVHCMAGVSRSASLVMIYLVKHEHMTLRQAYHYVKAARPIIRPNVGFWKQMVDYEKRLRGTASVKMVQTPECDMPIPDVYADDIRRMQINREISRHSLPSAQSSASKQRAFSASTYRPSVSSASSLATSSLRRAYSPSSLPASSLALTTSYSLFSPAPTRKPRQSLFSMYSTSPRHNFFSAF” was “not soluble”.
With “MSRQAKDDFLRHYTVSDPRTHPKGYTEYKVTAQFISKKDPEDVKEVVVWKRYSDFRKLHGDLAYTHRNLFRRLEEFPAFPRAQVFGRFEASVIEERRKGAEDLLRFTVHIPALNNSPQLKEFFRGGEVTRPLEVSRDLHILPPPLIPTPPPDDPRLSQLLPAERRGLEELEVPVDPPPSSPAQEALDLLFNCESTEEASGSPARGPLTEAELALFDPFSKEEGAAPSPTHVAELATMEVESARLDQEPWEPGGQEEEEDGEGGPTPAYLSQATELITQALRDEKAGAYAAALQGYRDGVHVLLQGVPSDPLPARQEGVKKKAAEYLKRAEEILRLHLSQLPP” the entry was “soluble”.
With “MSRRASKRPAPYPLLCEQKPEDLLVAPVEHKVYQDFEPKRPREFSPVMAQSLPPGEIDFQPSKIIFNAPYNENQESKIKLINTSALRIAYGINTYMKRLRVDTMCTPNCGVLDPSEEILLTISCDAFAFGQVDTTNDRITVEWTNTSEGSTKQFCRDWLDGDGMVRRKTLPIEYSSSPIAQTSSAPLLQASKHGMWLPIGFAASELYDYAKGEPLDRKTCEKNLEKLIKNDRDVDYYEWLNFAKRCRTQNQNLMEEMALGMAFTTAMANKQHRKISRKAEKITEPITTNKAFSIDSAEKFDRALTLPSRKWFMISDVVTDGDVSNWSTANLVTLVRALARTVFDKVAIADPHMMCYATSQNASTYIPIARDFFEGFAEYILGGFGEEQSRDLKFRVRKLVTDVMGNKLDRVRGRHNKMYGNEASEDATRWLREQLRKEDGELKESRLIFPNGSEMMCNYQVNEENPEGSIKSEIFNDEEEVEME” the entry was “not soluble”; with “MSRVPEPSVFLVVDEAKRKARERGVGLIDLSIGSTDLPPPEAPLKALAEALNDPTTYGYCLKSCTLPFLEEAARWYEGRYGVGLDPRREALALIGSQEGLAHLLLALTEPEDLLLLPEVAYPSYFGAARVASLRTFLIPLREDGLADLKAVPEGVWREAKVLLLNYPNNPTGAVADWGYFEEALGLARKHGLWLIHDNPYVDQVYEGEAPSPLALPGAKERVVELFSLSKSYNLAGFRLGFALGSEEALARLERVKGVIDFNQYAGVLRMGVEALKTPKEVVRGYARVYRERALGMAEALKGVLSLLPPRATMYLWGRLPEGVDDLEFGLRLVERGVALAPGRGFGPGGKGFVRIALVRPLEELLEAAKRIREALD”, “soluble”.
Take “MSRYLITFDMDTNCLKDNYHGNNYTNAYSDIKTILARHGFENIQGSVYLGREGISEAHGTIAIQELTARFDWFYSCISNIKFYRLESDLNAQFIADGVYQAKQAFLQRVEQLRISLTEAGLSDEQINQVLEKQKFELESPNLKLN”: the “soluble on expression in E. coli” value is “not soluble”.
With “MSSDEQKPEVNGYWTSVKNFSSSAATSINNATTSAWNSEFAASTSATVKDFSTSATKSIGEAATSAWNSETASTATSAISEAAKNARSWYDSSSEENEELEPSGHGFRGGIAALSRNASHYVISTVGRSSNILNIFDKTNKSSLGNPRWWIRFDRPHGNVDFHHININKAVTGLKDPHIPLTPTTAKTIGVLGKVAEKANDVAPLLTTAAMIYEAYRVGQEVHKDMNHGTTRNTIKTLAATSGTYSSGSIGAYAGSVIGTSIFPGLGTIFGAVVGGIVGGHFGGHYSHVATENALNHVKWDVVTFVCDGCDEEYTWKKYQEIEGTCCTRFNNKRQDSVDYWFKKLETNHDF” the entry was “not soluble”.
